The test system of the series is MS2 coat protein. Put plainly: apparent KD of MS2 coat protein; higher = weaker reporter binding. The conditions noted are these: Eterna round: R107. The essentials:
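Normalised binding curves from single clusters were fitted, and the median fit for each design is given as apparent KD. The clusters held designed RNA switches transcribed on-chip from Illumina sequencing clusters. These were titrated with SNAP-549-labelled MS2 coat protein (twofold steps from 0.7 or 1.5 nM to 3 µM, 0.8–1.5 h to 10–20 min per step) in 100 mM Tris-HCl pH 7.5, 80 mM KCl, 4 mM MgCl2, without or with constant ligand.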

The mark [1] stands for this setting: input ligand: theophylline 20 uM.
Setting [2] is: input ligand: theophylline 2 mM.
[3] abbreviates: input ligand: tryptophan 2.4 mM.

Turning to “CUCUGAGUGAGAAAUCACUCAGAGGCGGAUACCAGCGAGGUCCAUCGCCCUUGGCAGCCGAACAUGAGGAUCACCCAUGUCGGUA [#1 Same State - Theophylline A Attempt #21 (HarryS)]”, the “apparent KD of MS2 coat protein” value by setting is: (input ligand: arginine 13.2 mM) 9.9 nM; (input ligand: none) 10.8 nM; under setting [1], 14 nM; under setting [2], 14.5 nM; under setting [3], 9.34 nM.

As to “AGAGUCUAGUCGGCCGCCACUCAUGUCCGAAGGACAUGAGGAUCACCCAUGUACCAAUGGUACAUGAGGACCGGGACUGGACUCA [Omei Tryp B SS C v3]”, the “apparent KD of MS2 coat protein” value (input ligand: arginine 13.2 mM) was 34.5 nM; the “apparent KD of MS2 coat protein” value (input ligand: none) was found to be 39.9 nM; the “apparent KD of MS2 coat protein” value under setting [1] turned out to be 98.3 nM; the “apparent KD of MS2 coat protein” value under setting [2] is 559 nM; the “apparent KD of MS2 coat protein” value under setting [3] came out at 7.34 nM.

In the case of “AAUAUAUAGACGGCCGCCACUGGAAUUAAUACAUGAGGAUCACCCAUGUGAAGAGGAUAAUAACACAGGACCGGGUCUUCAUGUA [SS Tryp B Tesla 1.2]”, the “apparent KD of MS2 coat protein” value was 68.5 nM (input ligand: arginine 13.2 mM); 37.4 nM (input ligand: none); 137 nM under setting [1]; 452 nM under setting [2]; 138 nM under setting [3].

Consider “GUCCGACAUGAGGAUCACCCAUGUACUGAAGGAGCGGACAAAUGUCCAGGUAGGUCGCAGCUAUAUGGUGUGGACCGAUCCGGAC [Ustius]”, for which the “apparent KD of MS2 coat protein” value came to 19 nM (input ligand: arginine 13.2 mM); 22 nM (input ligand: none); 27.2 nM under setting [1]; 23.6 nM under setting [2]; 22.4 nM under setting [3].

As for “CGAGUAGGUUCAAUCGAAUAACGGUUUUCGCGAGGACCGGUACGGCCGCCACUCGUGUGAUAUCACACAUGAGGAUCACCCAUGU [3'end-1]”, the “apparent KD of MS2 coat protein” value was found to be 33.5 nM (input ligand: arginine 13.2 mM), 49.2 nM under setting [1] and 68 nM under setting [2].

For the sequence “UACAUGAGGAUCACCCAUGUAUAACCGGUACGAGGACCGGUACGGCCGCCACUCGAAACAUGAGGAUCACCCAUGUGCUACUAUU [Same State Trypophan A GF 22]”, the “apparent KD of MS2 coat protein” value came out at 25.3 nM (input ligand: arginine 13.2 mM), 36.4 nM under setting [1] and 35.1 nM under setting [2].

On to “AACAGUUGGUCGGCCGCCACUACAUGAGGAUCACCCAUGUAGCGCGUUCUGCUCCAGGGCUCAUCUAGGACCGGGACACGAGUGU [Raa]”, for which the “apparent KD of MS2 coat protein” value (input ligand: arginine 13.2 mM) is 12.2 nM, the “apparent KD of MS2 coat protein” value under setting [1] was found to be 21.4 nM and the “apparent KD of MS2 coat protein” value under setting [2] was determined as 14.5 nM.

With “AUCGUACCUGAUGAUACCAGCAAUUGCUCGUGACAUGAGGAUCACCCAUGUGACCAGUGAUGCCCUUGGCAGCAUGGUCGGUGCA [Same State - Theophylline B (Freestyle 22)]”, the “apparent KD of MS2 coat protein” value by setting is: (input ligand: arginine 13.2 mM) 42.8 nM; under setting [1], 79.3 nM; under setting [3], 69.5 nM.

As for “AUGUCCUAAACGGCCGCCACUUACAUGAGGAUCACCCAUGUUUACCGAUAUGGUUGUUGCUUUCCAAGGACCGGGUUUAAUCUGC [theeternabot_exclusion_MS2_Trp_B_49]”, the “apparent KD of MS2 coat protein” value stood at 13.1 nM (input ligand: arginine 13.2 mM), 14.9 nM under setting [1] and 12.7 nM under setting [2].

In the case of “ACAUGAGGAUCACCCAUGUCUGCCACUGAUACCAGCGGAUGCCAACGCCCUUGGCAGCAGAACAUGAGGAUCACCCAUGUAGGCA [Same State Theophylline A GF25]”, the “apparent KD of MS2 coat protein” value is 99.5 nM (input ligand: arginine 13.2 mM), 303 nM under setting [1] and 297 nM under setting [3].

With “AAUAACAUGAGGAUCACCCAUGUAAAAGAUACCAGAUGCAUGAUGAUCCCUUGGCAGCUUAAAACGCGAUUGGAAACAAUCGCGA [Mat - Same State Theophlline A - Mod of Eli - D13]”, the “apparent KD of MS2 coat protein” value is, setting by setting: (input ligand: arginine 13.2 mM) 46.1 nM; under setting [1], 93.4 nM; under setting [3], 30.8 nM.

Regarding “ACGUAAUGCAGAAGGAGCGUCUGAUUUUAACAUGAGGAUCACCCAUGUAAUAUUUAUGGUAGACAGGUAGGUCGCUGAAGUACGA [JR_ExcArginiB_Sub002]”, the “apparent KD of MS2 coat protein” value amounted to 14.8 nM (input ligand: arginine 13.2 mM), 16.8 nM under setting [1], 15.2 nM under setting [2] and 14.8 nM under setting [3].

As for “AAAUAAAUAACUGAUACCAGUGUACUGACAUGAGGAUCACCCAUGUUGGGUUUGGUUGUACACCCUUGGCAGCAGAAAUAUAAAA [test (nupak]”, the “apparent KD of MS2 coat protein” value reads like this: (input ligand: arginine 13.2 mM) 15.4 nM; under setting [1], 20.6 nM; under setting [3], 15.1 nM.

Take “AUCCUUAAUAGGGUAAAUGGAUAAAGUGAUACCAGUCAAAUACAAGACCCUUGGCAGCACAAGGACAUGAGGAUCACCCAUGUCA [Same State Theophylline A GF21]”: the “apparent KD of MS2 coat protein” value is, setting by setting: (input ligand: arginine 13.2 mM) 20.9 nM; under setting [1], 22 nM; under setting [3], 21.6 nM.

For the origin of these results see the supplement of paper PMC9170038.
